Test results taken from IntAct's records for PubMed 17891150.

Molecular target: TNRC6B, Q9UPQ9-2
Sequence (Q9UPQ9 other isoform, or with tags, fused parts or gaps): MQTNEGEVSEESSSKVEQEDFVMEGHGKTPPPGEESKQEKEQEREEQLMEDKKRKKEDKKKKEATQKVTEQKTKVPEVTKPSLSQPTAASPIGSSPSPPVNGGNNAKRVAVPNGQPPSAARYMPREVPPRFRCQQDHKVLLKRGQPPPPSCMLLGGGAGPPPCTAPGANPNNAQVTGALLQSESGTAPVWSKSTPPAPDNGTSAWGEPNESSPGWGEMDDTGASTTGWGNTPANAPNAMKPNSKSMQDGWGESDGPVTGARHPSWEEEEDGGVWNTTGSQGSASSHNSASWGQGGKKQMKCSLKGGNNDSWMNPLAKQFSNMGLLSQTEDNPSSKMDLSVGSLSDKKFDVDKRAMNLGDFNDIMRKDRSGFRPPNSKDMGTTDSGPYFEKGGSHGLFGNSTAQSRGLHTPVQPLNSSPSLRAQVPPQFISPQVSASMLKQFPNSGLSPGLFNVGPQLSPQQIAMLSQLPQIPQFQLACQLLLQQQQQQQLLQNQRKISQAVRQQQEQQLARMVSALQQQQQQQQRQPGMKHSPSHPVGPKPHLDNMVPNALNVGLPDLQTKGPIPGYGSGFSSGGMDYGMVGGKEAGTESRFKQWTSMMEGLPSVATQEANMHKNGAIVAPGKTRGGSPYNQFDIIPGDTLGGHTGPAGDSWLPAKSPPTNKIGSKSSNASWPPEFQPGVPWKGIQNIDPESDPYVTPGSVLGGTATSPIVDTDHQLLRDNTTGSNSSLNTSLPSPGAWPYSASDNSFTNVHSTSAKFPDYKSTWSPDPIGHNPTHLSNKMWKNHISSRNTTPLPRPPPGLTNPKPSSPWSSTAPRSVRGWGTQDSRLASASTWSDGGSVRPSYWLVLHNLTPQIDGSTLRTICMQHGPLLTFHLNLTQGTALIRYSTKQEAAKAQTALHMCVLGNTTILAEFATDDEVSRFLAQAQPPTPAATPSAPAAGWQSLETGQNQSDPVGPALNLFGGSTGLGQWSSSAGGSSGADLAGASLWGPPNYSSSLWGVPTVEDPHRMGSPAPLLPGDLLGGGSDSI

Sequence of Protein argonaute-2 (Homo sapiens), Q9UKV8 R812A (Q9UKV8 whole entry R812A): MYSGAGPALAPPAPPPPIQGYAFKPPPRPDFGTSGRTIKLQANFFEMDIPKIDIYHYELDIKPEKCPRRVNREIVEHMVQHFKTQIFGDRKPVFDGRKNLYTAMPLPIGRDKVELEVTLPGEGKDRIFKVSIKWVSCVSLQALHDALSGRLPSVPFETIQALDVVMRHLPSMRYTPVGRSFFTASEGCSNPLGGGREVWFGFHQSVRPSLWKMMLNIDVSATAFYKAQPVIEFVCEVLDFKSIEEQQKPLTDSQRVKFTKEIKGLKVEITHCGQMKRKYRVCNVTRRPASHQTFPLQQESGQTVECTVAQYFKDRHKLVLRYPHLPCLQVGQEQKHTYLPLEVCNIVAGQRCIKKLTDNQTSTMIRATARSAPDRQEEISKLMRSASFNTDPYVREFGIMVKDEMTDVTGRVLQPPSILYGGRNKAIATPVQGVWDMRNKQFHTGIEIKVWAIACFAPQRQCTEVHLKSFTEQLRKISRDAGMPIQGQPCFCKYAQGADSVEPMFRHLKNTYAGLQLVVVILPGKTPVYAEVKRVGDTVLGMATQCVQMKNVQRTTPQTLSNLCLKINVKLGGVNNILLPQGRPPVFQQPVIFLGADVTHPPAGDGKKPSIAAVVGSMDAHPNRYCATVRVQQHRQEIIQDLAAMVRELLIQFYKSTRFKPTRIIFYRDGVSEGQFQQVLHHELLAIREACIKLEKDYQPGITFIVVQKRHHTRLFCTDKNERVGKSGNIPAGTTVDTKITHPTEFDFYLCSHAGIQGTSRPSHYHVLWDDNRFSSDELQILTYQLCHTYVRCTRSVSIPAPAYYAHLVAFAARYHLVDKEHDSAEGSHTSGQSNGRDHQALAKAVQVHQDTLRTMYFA
Sequence of Protein argonaute-2 (Homo sapiens), Q9UKV8 V615A (Q9UKV8 whole entry V615A): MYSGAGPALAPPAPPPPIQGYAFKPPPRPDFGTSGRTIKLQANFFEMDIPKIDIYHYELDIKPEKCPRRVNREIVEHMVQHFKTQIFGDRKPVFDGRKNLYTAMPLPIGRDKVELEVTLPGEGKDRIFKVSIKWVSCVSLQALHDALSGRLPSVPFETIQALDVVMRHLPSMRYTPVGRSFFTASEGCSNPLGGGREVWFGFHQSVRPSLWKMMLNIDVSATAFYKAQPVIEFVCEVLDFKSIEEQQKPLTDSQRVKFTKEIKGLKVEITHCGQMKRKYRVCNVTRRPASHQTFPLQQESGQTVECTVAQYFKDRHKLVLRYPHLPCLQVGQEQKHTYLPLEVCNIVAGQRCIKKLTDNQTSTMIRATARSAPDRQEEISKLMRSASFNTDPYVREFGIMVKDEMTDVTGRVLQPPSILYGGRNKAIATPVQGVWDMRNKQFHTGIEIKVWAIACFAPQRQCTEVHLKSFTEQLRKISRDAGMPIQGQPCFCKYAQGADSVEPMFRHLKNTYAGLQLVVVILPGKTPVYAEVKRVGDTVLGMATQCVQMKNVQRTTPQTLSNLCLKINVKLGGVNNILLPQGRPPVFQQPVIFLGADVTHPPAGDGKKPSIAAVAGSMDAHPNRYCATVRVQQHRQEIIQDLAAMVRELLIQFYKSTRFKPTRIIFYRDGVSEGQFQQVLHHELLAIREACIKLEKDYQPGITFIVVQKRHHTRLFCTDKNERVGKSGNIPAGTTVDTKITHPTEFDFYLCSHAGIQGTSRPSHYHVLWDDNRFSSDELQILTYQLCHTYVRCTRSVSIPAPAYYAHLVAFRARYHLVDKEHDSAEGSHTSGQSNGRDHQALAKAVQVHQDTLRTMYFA
Sequence of Protein argonaute-2 (Homo sapiens), Q9UKV8 V797A (Q9UKV8 whole entry V797A): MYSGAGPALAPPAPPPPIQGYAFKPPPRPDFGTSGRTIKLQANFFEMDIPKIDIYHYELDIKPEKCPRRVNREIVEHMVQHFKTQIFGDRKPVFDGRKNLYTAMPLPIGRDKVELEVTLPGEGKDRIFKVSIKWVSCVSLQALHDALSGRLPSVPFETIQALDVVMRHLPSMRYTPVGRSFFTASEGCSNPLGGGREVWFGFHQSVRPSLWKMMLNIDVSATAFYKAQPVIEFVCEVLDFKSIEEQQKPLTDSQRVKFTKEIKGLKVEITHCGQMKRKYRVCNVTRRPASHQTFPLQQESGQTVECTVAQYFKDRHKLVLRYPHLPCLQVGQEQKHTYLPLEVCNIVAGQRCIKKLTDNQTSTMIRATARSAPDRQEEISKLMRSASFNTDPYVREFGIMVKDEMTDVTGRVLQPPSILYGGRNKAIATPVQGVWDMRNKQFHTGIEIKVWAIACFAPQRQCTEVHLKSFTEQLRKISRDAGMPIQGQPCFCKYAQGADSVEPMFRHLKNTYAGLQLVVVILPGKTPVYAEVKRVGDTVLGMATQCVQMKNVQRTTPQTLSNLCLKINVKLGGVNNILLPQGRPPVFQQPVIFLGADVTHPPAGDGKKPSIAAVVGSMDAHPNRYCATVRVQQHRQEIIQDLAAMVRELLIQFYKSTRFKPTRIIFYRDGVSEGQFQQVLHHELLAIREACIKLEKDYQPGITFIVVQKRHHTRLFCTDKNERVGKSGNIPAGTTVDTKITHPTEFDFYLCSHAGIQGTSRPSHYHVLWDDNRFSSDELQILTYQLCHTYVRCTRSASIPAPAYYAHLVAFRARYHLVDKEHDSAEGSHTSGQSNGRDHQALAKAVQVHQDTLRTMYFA
Sequence of Protein argonaute-2 (Homo sapiens), Q9UKV8 F587A (Q9UKV8 whole entry F587A): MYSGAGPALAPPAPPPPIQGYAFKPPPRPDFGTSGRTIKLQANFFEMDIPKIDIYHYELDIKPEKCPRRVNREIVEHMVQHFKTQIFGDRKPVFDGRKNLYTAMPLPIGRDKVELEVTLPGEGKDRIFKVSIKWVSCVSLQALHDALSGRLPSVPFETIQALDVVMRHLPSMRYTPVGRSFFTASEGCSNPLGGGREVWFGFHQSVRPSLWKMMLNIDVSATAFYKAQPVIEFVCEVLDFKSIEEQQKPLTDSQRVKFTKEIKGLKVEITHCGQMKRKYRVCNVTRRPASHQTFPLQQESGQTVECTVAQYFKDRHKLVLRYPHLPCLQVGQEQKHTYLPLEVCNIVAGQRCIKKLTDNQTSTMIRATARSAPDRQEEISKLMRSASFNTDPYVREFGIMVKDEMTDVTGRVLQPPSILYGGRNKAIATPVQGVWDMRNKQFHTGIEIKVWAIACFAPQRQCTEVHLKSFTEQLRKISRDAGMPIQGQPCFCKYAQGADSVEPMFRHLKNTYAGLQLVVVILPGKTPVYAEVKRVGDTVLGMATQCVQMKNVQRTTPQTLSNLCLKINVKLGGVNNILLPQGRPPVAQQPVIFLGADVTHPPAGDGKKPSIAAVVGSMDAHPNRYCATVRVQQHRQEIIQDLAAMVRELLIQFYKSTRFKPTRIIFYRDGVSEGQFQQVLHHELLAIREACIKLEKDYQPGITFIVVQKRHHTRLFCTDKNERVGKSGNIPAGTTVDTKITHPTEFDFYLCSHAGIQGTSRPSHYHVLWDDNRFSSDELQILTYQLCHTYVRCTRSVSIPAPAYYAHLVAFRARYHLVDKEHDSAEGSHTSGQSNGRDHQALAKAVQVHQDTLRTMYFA

Substance | effect of a mutation on the interaction
Protein argonaute-2 (Homo sapiens), Q9UKV8 F587A | decreasing interaction
Protein argonaute-2 (Homo sapiens), Q9UKV8 I592A | disrupting interaction
Protein argonaute-2 (Homo sapiens), Q9UKV8 K533A | disrupting interaction
Protein argonaute-2 (Homo sapiens), Q9UKV8 R583A | disrupting interaction
Protein argonaute-2 (Homo sapiens), Q9UKV8 R647A | disrupting interaction
Protein argonaute-2 (Homo sapiens), Q9UKV8 V797A | disrupting interaction
Protein argonaute-2 (Homo sapiens), Q9UKV8 Y625A | disrupting interaction
Protein argonaute-2 (Homo sapiens), Q9UKV8 Y749A | decreasing interaction
Protein argonaute-2 (Homo sapiens), Q9UKV8 Y784A | decreasing interaction
Protein argonaute-2 (Homo sapiens), Q9UKV8 Y805A | decreasing interaction

The next lines start with the values.

effect of a mutation on the interaction | Substance
disrupting interaction | Protein argonaute-2 (Homo sapiens), Q9UKV8 F653A
decreasing interaction | Protein argonaute-2 (Homo sapiens), Q9UKV8 F858A
disrupting interaction strength | Protein argonaute-2 (Homo sapiens), Q9UKV8 Q545A
disrupting interaction | Protein argonaute-2 (Homo sapiens), Q9UKV8 R812A
decreasing interaction | Protein argonaute-2 (Homo sapiens), Q9UKV8 V615A
disrupting interaction | Protein argonaute-2 (Homo sapiens), Q9UKV8 Y529A
